From the supplement of paper PMC10724198
± gives the standard deviation of the averaged measurements.

How the values were obtained:
[1] = test system: Saccharomyces cerevisiae; assay: protein stability index of tFT-peptide fusion (C-terminal peptide) (PSI (0-1 scale)); higher = more stable (slower turnover)
Protocol: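 MPS profiling in S. cerevisiae of the tFT-X12 degron library: putative degron peptides plus stable controls, 12 aa, fused to the C-terminus of a sfGFP-mCherry timer. Cells are FACS-sorted into 8 mCherry/sfGFP bins and deep-sequenced. PSI runs from 0 (unstable) to 1 (stable). Backgrounds are wild type, das1Δ and doa10Δ at 30 °C, and wild type, das1Δ, cdc34-1 and cdc53-1 at 37 °C; 2-3 technical replicates each.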

[2] = test system: Saccharomyces cerevisiae; assay: as above; settings: genetic background: wild type; temperature: 30 C
[3] = genetic background: cdc34-1, temperature: 37 C
[4] = genetic background: cdc53-1, temperature: 37 C
[5] = genetic background: das1 deletion, temperature: 30 C
[6] = genetic background: das1 deletion, temperature: 37 C
[7] = genetic background: doa10 deletion, temperature: 30 C
[8] = genetic background: wild type, temperature: 30 C
[9] = genetic background: wild type, temperature: 37 C
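Also: PSI is a weighted mean of sequencing reads over stability bins, variants kept only with over 10 reads, mCherry proximal and sfGFP distal, peptide attached via GGGS linker.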

| Sequence | protein stability index [1, 3] | protein stability index [1, 4] | protein stability index [1, 5] | protein stability index [1, 6] | protein stability index [1, 7] | protein stability index [1, 8] | protein stability index [1, 9] | protein stability index [2] |
| --- | --- | --- | --- | --- | --- | --- | --- | --- |
| GRHRRYLLLPVH | 0.487 ± 0.029 | 0.5232 ± 0.0027 | 0.369 ± 0.028 | 0.541 ± 0.0057 | 0.308 ± 0.0055 | 0.35 ± 0.019 | 0.485 ± 0.013 | 0.419 ± 0.015 |
| GRSVLIGLIVRC | 0.417 ± 0.015 | 0.433 ± 0.014 | 0.332 ± 0.048 | 0.53715 ± 0.00026 | 0.437 ± 0.023 | 0.349 ± 0.022 | 0.479 ± 0.0083 | 0.4701 ± 0.0034 |
| GTLSSSLIKSCA | 0.602 ± 0.036 | 0.616 ± 0.017 | 0.488 ± 0.027 | 0.637 ± 0.013 | 0.481 ± 0.01 | 0.499 ± 0.029 | 0.614 ± 0.0095 | 0.52 ± 0.057 |
| GTVRGDLSLWLC | 0.622 ± 0.047 | 0.745 ± 0.0076 | 0.681 ± 0.0076 | 0.765 ± 0.015 | 0.156 ± 0.012 | 0.17 ± 0.031 | 0.274 ± 0.023 | 0.349 ± 0.11 |
| GVGTFRLCVLLV | 0.233 ± 0.004 | 0.2473 ± 0.0021 | 0.273 ± 0.029 | 0.3697 ± 0.0013 | 0.156 ± 0.022 | 0.138 ± 0.0077 | 0.128 ± 0.0081 | 0.197 ± 0.02 |
| GVQVIWGWARVF | 0.51 ± 0.14 | 0.595 ± 0.019 | 0.507 ± 0.042 | 0.654 ± 0.019 | 0.0987 ± 0.029 | 0.0712 ± 0.032 | 0.131 ± 0.036 | 0.0923 ± 0.032 |
| GVVVWWCYFVFV | 0.181 ± 0.012 | 0.298 ± 0.034 | 0.183 ± 0.031 | 0.3631 ± 0.00064 | 0.161 ± 0.0072 | 0.161 ± 0.021 | 0.321 ± 0.0065 | 0.257 ± 0.03 |
| GWLFTFTCAFRV | 0.429 ± 0.01 | 0.441 ± 0.014 | 0.443 ± 0.027 | 0.482 ± 0.012 | 0.4984 ± 0.0014 | 0.428 ± 0.016 | 0.4672 ± 0.0025 | 0.479 ± 0.058 |
| GWRVWVQIIWGR | 0.316 ± 0.013 | 0.409 ± 0.0041 | 0.293 ± 0.027 | 0.441 ± 0.018 | 0.282 ± 0.0029 | 0.286 ± 0.02 | 0.40261 ± 8.5e-05 | 0.352 ± 0.028 |
| GYGAVHWWFWLF | 0.604 ± 0.052 | 0.6675 ± 0.0043 | 0.587 ± 0.04 | 0.7066 ± 0.006 | 0.1934 ± 0.0013 | 0.214 ± 0.026 | 0.3761 ± 0.0034 | 0.31 ± 0.027 |
| GYVCVGLVYSVA | 0.372 ± 0.041 | 0.411 ± 0.017 | 0.267 ± 0.038 | 0.463 ± 0.0037 | 0.216 ± 0.0035 | 0.249 ± 0.038 | 0.433 ± 0.0093 | 0.337 ± 0.072 |
| HCINYGRIQFCA | 0.596 ± 0.028 | 0.71 ± 0.05 | 0.596 ± 0.013 | 0.714 ± 0.024 | 0.245 ± 0.012 | 0.253 ± 0.034 | 0.532 ± 0.06 | 0.388 ± 0.051 |
| HEVHATVPNQIM | 0.688 ± 0.026 | 0.7487 ± 0.0024 | 0.638 ± 0.01 | 0.736 ± 0.0095 | 0.649 ± 0.018 | 0.653 ± 0.02 | 0.7114 ± 0.0045 | 0.697 ± 0.011 |
| HFRFSRYIRWVL | 0.619 ± 0.08 | 0.7004 ± 0.0021 | 0.653 ± 0.02 | 0.746 ± 0.0079 | 0.139 ± 0.0018 | 0.151 ± 0.016 | 0.332 ± 0.0057 | 0.237 ± 0.013 |
| HFSCLLIILGFC | 0.275 ± 0.01 | 0.395 ± 0.078 | 0.268 ± 0.04 | 0.448 ± 0.0081 | 0.216 ± 0.005 | 0.267 ± 0.023 | 0.459 ± 0.092 | 0.331 ± 0.026 |
| HIVWVLQRAFRG | 0.511 ± 0.058 | 0.516 ± 0.0086 | 0.493 ± 0.021 | 0.504 ± 0.02 | 0.506 ± 0.038 | 0.488 ± 0.016 | 0.485 ± 0.018 | 0.509 ± 0.039 |
| HLCVLWVLLLCF | 0.286 ± 0.032 | 0.323 ± 0.0031 | 0.26 ± 0.025 | 0.383 ± 0.011 | 0.289 ± 0.015 | 0.246 ± 0.019 | 0.368 ± 0.024 | 0.333 ± 0.011 |
| HLFDMFFFLLHV | 0.514 ± 0.047 | 0.5932 ± 0.0025 | 0.488 ± 0.022 | 0.611 ± 0.0073 | 0.343 ± 0.0048 | 0.33 ± 0.022 | 0.504 ± 0.01 | 0.441 ± 0.027 |
| HLGAAVYVFSVL | 0.664 ± 0.086 | 0.707 ± 0.019 | 0.551 ± 0.0072 | 0.705 ± 0.016 | 0.399 ± 0.071 | 0.424 ± 0.0089 | 0.64 ± 0.03 | 0.477 ± 0.006 |
| HMSAISLIGALA | 0.595 ± 0.051 | 0.575 ± 0.04 | 0.436 ± 0.06 | 0.595 ± 0.011 | 0.392 ± 0.0086 | 0.434 ± 0.02 | 0.5673 ± 0.0013 | 0.519 ± 0.029 |

| Sequence | protein stability index [1, 3] | protein stability index [1, 4] | protein stability index [1, 5] | protein stability index [1, 6] | protein stability index [1, 7] | protein stability index [1, 8] | protein stability index [1, 9] | protein stability index [2] |
| --- | --- | --- | --- | --- | --- | --- | --- | --- |
| HNLYCKILQLCV | 0.419 ± 0.013 | 0.49 ± 0.12 | 0.304 ± 0.049 | 0.497 ± 0.04 | 0.242 ± 0.017 | 0.294 ± 0.025 | 0.449 ± 0.03 | 0.446 ± 0.0057 |
| HPPRSLTLASSS | 0.696 ± 0.039 | 0.75 ± 0.014 | 0.661 ± 0.012 | 0.754 ± 0.025 | 0.65 ± 0.019 | 0.6427 ± 0.0058 | 0.7137 ± 0.00092 | 0.127 ± 0.029 |
| HRCLFPLEYLLI | 0.613 ± 0.055 | 0.72 ± 0.015 | 0.551 ± 0.021 | 0.701 ± 0.026 | 0.303 ± 0.022 | 0.344 ± 0.017 | 0.503 ± 0.018 | 0.473 ± 0.052 |
| HSLLLWLLVFFR | 0.441 ± 0.013 | 0.511 ± 0.01 | 0.388 ± 0.027 | 0.516 ± 0.0056 | 0.3609 ± 0.0034 | 0.367 ± 0.018 | 0.508 ± 0.012 | 0.413 ± 0.036 |
| HSVPPYPTPPPF | 0.668 ± 0.054 | 0.739 ± 0.0011 | 0.337 ± 0.041 | 0.616 ± 0.0097 | 0.302 ± 0.016 | 0.372 ± 0.016 | 0.586 ± 0.025 | 0.463 ± 0.002 |
| HVLLSSSASIVV | 0.623 ± 0.015 | 0.6613 ± 0.0046 | 0.534 ± 0.019 | 0.6449 ± 0.0028 | 0.534 ± 0.03 | 0.529 ± 0.026 | 0.63 ± 0.047 | 0.536 ± 0.058 |
| HYATLMSLRKVL | 0.6682 ± 0.0023 | 0.716 ± 0.036 | 0.64 ± 0.022 | 0.7219 ± 0.0017 | 0.128 ± 0.0077 | 0.137 ± 0.022 | 0.316 ± 0.032 | 0.27 ± 0.047 |
| IAYCDNGFLVVV | 0.636 ± 0.037 | 0.676 ± 0.028 | 0.548 ± 0.023 | 0.695 ± 0.019 | 0.539 ± 0.013 | 0.563 ± 0.012 | 0.652 ± 0.012 | 0.521 ± 0.077 |
| IDTSRAATLLPA | 0.675 ± 0.021 | 0.7136 ± 0.0016 | 0.606 ± 0.017 | 0.722 ± 0.011 | 0.611 ± 0.016 | 0.631 ± 0.028 | 0.7161 ± 0.0029 | 0.739 ± 0.012 |
| IFWAKRNLVRVT | 0.382 ± 0.0086 | 0.421 ± 0.011 | 0.307 ± 0.029 | 0.478 ± 0.0088 | 0.201 ± 0.0051 | 0.251 ± 0.025 | 0.402 ± 0.0096 | 0.363 ± 0.028 |
| IGKEKRMKVIQI | 0.65 ± 0.025 | 0.69 ± 0.022 | 0.624 ± 0.018 | 0.735 ± 0.019 | 0.433 ± 0.0078 | 0.477 ± 0.0096 | 0.615 ± 0.013 | 0.516 ± 0.065 |
| IKKKRNKKKMIM | 0.653 ± 0.093 | 0.727 ± 0.011 | 0.655 ± 0.026 | 0.731 ± 0.026 | 0.316 ± 0.035 | 0.322 ± 0.048 | 0.597 ± 0.013 | 0.505 ± 0.042 |
| IKPSVHILIRTL | 0.544 ± 0.019 | 0.57 ± 0.017 | 0.446 ± 0.046 | 0.571 ± 0.02 | 0.118 ± 0.022 | 0.14 ± 0.0072 | 0.222 ± 0.0071 | 0.21 ± 0.0069 |
| ILGDPHLALIFP | 0.689 ± 0.02 | 0.757 ± 0.012 | 0.657 ± 0.026 | 0.749 ± 0.018 | 0.652 ± 0.028 | 0.666 ± 0.021 | 0.7324 ± 0.0016 | 0.703 ± 0.022 |
| ILVYFQAHAIKI | 0.1592 ± 0.00018 | 0.189 ± 0.015 | 0.0937 ± 0.022 | 0.199 ± 0.0036 | 0.0645 ± 0.012 | 0.0874 ± 0.027 | 0.202 ± 0.01 | 0.129 ± 0.0092 |
| ISARPFLYSFRP | 0.683 ± 0.01 | 0.7515 ± 0.0074 | 0.643 ± 0.034 | 0.7373 ± 0.0025 | 0.644 ± 0.027 | 0.644 ± 0.041 | 0.71009 ± 0.00017 | 0.0266 ± 0.038 |
| ISFSLALSVSFS | 0.5219 ± 0.0035 | 0.532 ± 0.014 | 0.502 ± 0.015 | 0.478 ± 0.029 | 0.567 ± 0.05 | 0.528 ± 0.011 | 0.469 ± 0.013 | 0.49 ± 0.0052 |
| ISLSCRSFFCLS | 0.61 ± 0.033 | 0.68 ± 0.011 | 0.574 ± 0.018 | 0.6691 ± 0.0065 | 0.446 ± 0.015 | 0.462 ± 0.019 | 0.5854 ± 0.0049 | 0.507 ± 0.027 |
| ISLVLVVIEVQR | 0.0774 ± 0.045 | 0.285 ± 0.042 | 0.166 ± 0.042 | 0.316 ± 0.017 | 0.135 ± 0.0075 | 0.143 ± 0.024 | 0.249 ± 0.03 | 0.209 ± 0.027 |
